{"source": "patent US20170218352", "molecules": {"B1": {"name": "recombinant 62 kDa collagenase (Grimontia hollisae-derived recombinant collagenase) (protein)", "chain": "AVEQCDLSQFQTTSSNQLMAAIRQQGASCVNALFSADTGVQEAAFSSNHMYNVAQYTRTLAQQYAGGGSDELEALYLYLRAGYYAEFYNSNITFLSWVTPAVKGAVDAFVQNAHFYDNGDAHGKVLNEVIITMDSAGLQHAYLDVVTQWLTRWNAQYAEHWYMRNAVNGVFTLLFGGQWNNQYTSLIGEQTALVTALQAFALDRTKVNSPTEFMAANAARELGRLARYTDATIAPKVTEGLTAIFGQYPSYGDGDAIWLGAADTASYYADCSQFNICGFEDALRDAALNQTFICSDTIKIRSQDMSQAQHLAACDKMAYEESFFHTTLETGNQPVADDHNTQLQVNIFNSDTDYGKYAGPIFGIDTNNGGMYLEGNPANVGNIPNFIAYEASYANPDHFVWNLEHEYVHYLDGRFNMYGDFGTPTELVVWWSEGVAEYVSRVNDNPQAIATIQDGSTYTLAQVFDTTYDGFDVDRIYRWGYLAVRFMFERHPDEVQRMLSATRQGRWAEYKAIISGWANQYQSEFAQWTEALAKGDSGAGNGEGTGSGNEGGGESGGNT"}, "B2": {"name": "recombinant 60 kDa collagenase (Grimontia hollisae-derived recombinant collagenase) (protein)", "chain": "AVEQCDLSQFQTTSSNQLMAAIRQQGASCVNALFSADTGVQEAAFSSNHMYNVAQYTRTLAQQYAGGGSDELEALYLYLRAGYYAEFYNSNITFLSWVTPAVKGAVDAFVQNAHFYDNGDAHGKVLNEVIITMDSAGLQHAYLDVVTQWLTRWNAQYAEHWYMRNAVNGVFTLLFGGQWNNQYTSLIGEQTALVTALQAFALDRTKVNSPTEFMAANAARELGRLARYTDATIAPKVTEGLTAIFGQYPSYGDGDAIWLGAADTASYYADCSQFNICGFEDALRDAALNQTFICSDTIKIRSQDMSQAQHLAACDKMAYEESFFHTTLETGNQPVADDHNTQLQVNIFNSDTDYGKYAGPIFGIDTNNGGMYLEGNPANVGNIPNFIAYEASYANPDHFVWNLEHEYVHYLDGRFNMYGDFGTPTELVVWWSEGVAEYVSRVNDNPQAIATIQDGSTYTLAQVFDTTYDGFDVDRIYRWGYLAVRFMFERHPDEVQRMLSATRQGRWAEYKAIISGWANQYQSEFAQWTEALAKGDS"}, "B3": {"name": "74 kDa collagenase (Grimontia hollisae-derived collagenase lacking the prepro region) (protein)", "chain": "AVEQCDLSQFQTTSSNQLMAAIRQQGASCVNALFSADTGVQEAAFSSNHMYNVAQYTRTLAQQYAGGGSDELEALYLYLRAGYYAEFYNSNITFLSWVTPAVKGAVDAFVQNAHFYDNGDAHGKVLNEVIITMDSAGLQHAYLDVVTQWLTRWNAQYAEHWYMRNAVNGVFTLLFGGQWNNQYTSLIGEQTALVTALQAFALDRTKVNSPTEFMAANAARELGRLARYTDATIAPKVTEGLTAIFGQYPSYGDGDAIWLGAADTASYYADCSQFNICGFEDALRDAALNQTFICSDTIKIRSQDMSQAQHLAACDKMAYEESFFHTTLETGNQPVADDHNTQLQVNIFNSDTDYGKYAGPIFGIDTNNGGMYLEGNPANVGNIPNFIAYEASYANPDHFVWNLEHEYVHYLDGRFNMYGDFGTPTELVVWWSEGVAEYVSRVNDNPQAIATIQDGSTYTLAQVFDTTYDGFDVDRIYRWGYLAVRFMFERHPDEVQRMLSATRQGRWAEYKAIISGWANQYQSEFAQWTEALAKGDSGAGNGEGTGSGNEGGGESGGNTGLPENCAVLPKISDGRLALDEAACLADTASASDVLWFSIPAVSEYQTIAITAGNGTGDLTLEYSNLNWPDGTNVQASSANMGNSECIILEHQANYWGYLKVSGSFENAALLVEAGSNQCRQ"}}, "key": {"[1]": {"test_system": "N-(3[2-furyl]acryloyl)-Leu-Gly-Pro-Ala"}, "[2]": {"test_system": "fluorescently labeled type I collagen (FITC-collagen)"}, "type I collagen [3]": {"test_system": "type I collagen"}, "type II collagen [4]": {"test_system": "type II collagen"}, "type III collagen [5]": {"test_system": "type III collagen"}, "type IV collagen [6]": {"test_system": "type IV collagen"}, "type V collagen [7]": {"test_system": "type V collagen"}, "type VI collagen [8]": {"test_system": "type VI collagen"}, "[9]": {"target": "T1, N-(3[2-furyl]acryloyl)-Leu-Gly-Pro-Ala", "T1 chain": "LGPA"}, "[10]": {"target": "fluorescently labeled type I collagen (FITC-collagen)", "remark": "listed apart in the source"}, "type I collagen [11]": {"target": "type I collagen", "remark": "listed apart in the source"}, "type II collagen [12]": {"target": "type II collagen", "remark": "listed apart in the source"}, "type III collagen [13]": {"target": "type III collagen", "remark": "listed apart in the source"}, "type IV collagen [14]": {"target": "type IV collagen", "remark": "listed apart in the source"}, "type V collagen [15]": {"target": "type V collagen", "remark": "listed apart in the source"}, "type VI collagen [16]": {"target": "type VI collagen", "remark": "listed apart in the source"}}, "note": "Where two headings read alike, the source gives them in different places."}
{"molecule": "collagenase derived from Clostridium histolyticum (manufactured by Roche Applied Science, trade name \"Liberase C/T\")", "values": [{"measurement": "Maximum rate", "setting": "[1]", "value": 0.2, "unit": "mM/s"}, {"measurement": "Michaelis constant", "setting": "[1]", "value": 2.03, "unit": "mM"}, {"measurement": "Molecular activity", "setting": "[1]", "value": 22.2, "unit": "s⁻¹"}, {"measurement": "Specific activity", "setting": "[1]", "value": 2.6, "unit": "U/mg"}, {"measurement": "Maximum rate", "setting": "[2]", "value": 0.00016, "unit": "mM/s"}, {"measurement": "Michaelis constant", "setting": "[2]", "value": 0.0019, "unit": "mM"}, {"measurement": "Molecular activity", "setting": "[2]", "value": 18.7, "unit": "s⁻¹"}, {"measurement": "Specific activity", "setting": "[2]", "value": 1770, "unit": "U/mg"}, {"measurement": "disappearance of collagen bands on electrophoresis after incubation", "setting": "type I collagen [3]", "value": "the recombinant 62 kDa collagenase seems to more rapidly digest the type I collagen than liberase"}, {"measurement": "disappearance of collagen bands on electrophoresis after incubation", "setting": "type II collagen [4]", "value": "This tendency was also similarly observed for the type II, type III, type IV, type V, and type VI collagens"}, {"measurement": "disappearance of collagen bands on electrophoresis after incubation", "setting": "type III collagen [5]", "value": "This tendency was also similarly observed for the type II, type III, type IV, type V, and type VI collagens"}, {"measurement": "disappearance of collagen bands on electrophoresis after incubation", "setting": "type IV collagen [6]", "value": "the bands do not disappear when the liberase is used"}, {"measurement": "disappearance of collagen bands on electrophoresis after incubation", "setting": "type V collagen [7]", "value": "the bands do not disappear when the liberase is used"}, {"measurement": "disappearance of collagen bands on electrophoresis after incubation", "setting": "type VI collagen [8]", "value": "the band does not disappear when the liberase is used"}]}
{"molecule": "B1", "values": [{"measurement": "Maximum rate", "setting": "[9]", "value": 0.6, "unit": "mM/s"}, {"measurement": "Michaelis constant", "setting": "[9]", "value": 2.28, "unit": "mM"}, {"measurement": "Molecular activity", "setting": "[9]", "value": 37.5, "unit": "s⁻¹"}, {"measurement": "Specific activity", "setting": "[9]", "value": 9.39, "unit": "U/mg"}, {"measurement": "Maximum rate", "setting": "[10]", "value": 0.00041, "unit": "mM/s"}, {"measurement": "Michaelis constant", "setting": "[10]", "value": 0.0011, "unit": "mM"}, {"measurement": "Molecular activity", "setting": "[10]", "value": 25.1, "unit": "s⁻¹"}, {"measurement": "Specific activity", "setting": "[10]", "value": 5490, "unit": "U/mg"}, {"measurement": "specific activity (from immediately after the purification to 24 hours)", "setting": "[10]", "value": "12,000 (U/mg)"}, {"measurement": "disappearance of collagen bands on electrophoresis after incubation", "setting": "type I collagen [11]", "value": "the recombinant 62 kDa collagenase seems to more rapidly digest the type I collagen than liberase"}, {"measurement": "disappearance of collagen bands on electrophoresis after incubation", "setting": "type II collagen [12]", "value": "This tendency was also similarly observed for the type II, type III, type IV, type V, and type VI collagens"}, {"measurement": "disappearance of collagen bands on electrophoresis after incubation", "setting": "type III collagen [13]", "value": "This tendency was also similarly observed for the type II, type III, type IV, type V, and type VI collagens"}, {"measurement": "disappearance of collagen bands on electrophoresis after incubation", "setting": "type IV collagen [14]", "value": "the band become weaker when the recombinant 62 kDa collagenase is used to react for three hours or five hours"}, {"measurement": "disappearance of collagen bands on electrophoresis after incubation", "setting": "type V collagen [15]", "value": "the band become weaker when the recombinant 62 kDa collagenase is used to react for three hours or five hours"}, {"measurement": "disappearance of collagen bands on electrophoresis after incubation", "setting": "type VI collagen [16]", "value": "the band become weaker when the recombinant 62 kDa collagenase is used to react for 72 hours"}]}
{"molecule": "B2", "values": [{"measurement": "specific activity (from immediately after the purification to 24 hours)", "setting": "[10]", "value": "12,000 (U/mg)"}]}
{"molecule": "B3", "values": [{"measurement": "specific activity (24 hours after the purification)", "setting": "[10]", "value": "11,500 (U/mg)"}, {"measurement": "specific activity (immediately after the purification)", "setting": "[10]", "value": "18,000 (U/mg)"}]}
